The values that follow are results of earlier work, collected in publication PMC4070987.

The series has as its target alkaline protease inhibitor (Pseudomonas aeruginosa) (UniProt Q03026).
UniProt Q03026, sequence (Q03026 27-131): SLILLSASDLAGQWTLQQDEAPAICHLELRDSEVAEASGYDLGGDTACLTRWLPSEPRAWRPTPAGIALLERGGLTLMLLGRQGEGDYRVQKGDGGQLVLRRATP

“alkaline protease (AP) (from UniProt Q03023)”: the Kd – broadly, the constant that tells how readily two partners part at equilibrium – is 4 pM.
